Source: patent US20090069241A1, “Compositions and Methods for Use of Pigment Epithelial Derived Factor (PEDF) Peptide Fragments” (Yale University, priority 2006, published 2009)

What was measured:
[1] = test system: inner retina (INL, IPL, retinal ganglion cell layer); assay: Transient retinal ischemia-reperfusion injury with intravitreous injection; morphometric analysis of inner retina; assay type: in vivo, C57/B16 mice; parameters: thickness of the INL compared with non-ischemia control / thickness of the IPL compared with non-ischemia control / surviving cells in the RGC layer compared with non-ischemia control: concentration or dose not given beside the values; settings: for surviving cells in the RGC layer compared with non-ischemia control / thickness of the INL compared with non-ischemia control / thickness of the IPL compared with non-ischemia control: single intravitreous injection immediately after ischemia
Description: Induction of transient retinal ischemia in C57/B16 mice: Animal experiments were conducted in accordance with ARVO guidelines and were approved by the Animal Care and Use Committee of Yale University School of Medicine. Transient retinal ischemia was induced in one eye and the contralateral eye served as control. During the operation and recovery period, animals were placed on water heating pads at 37° C. […] Briefly, animals were anesthetized by i.p. injection of a mixture of 100 mg/kg Ketamine+10 mg/kg Xylazine. […] The anterior chambers were cannulated in fully anesthetized animals with a 30-gauge infusion needle connected by PE10 polyethylene tubing and IV set to a physiological saline reservoir. The intraocular pressure (IOP) of the cannulated eye was raised to 120 mmHg for 60 minutes by elevating the saline reservoir. Retinal ischemia was confirmed by direct microscopic observation of whitening of the fundus. The reperfusion was confirmed visually when needle was withdrawn from the anterior chamber. One group of animals was treated with Vetropolycin® ophthalmic ointment (Pharmaderm, Melville, N. Y.) on the ischemic eyes and allowed to recover for 24 hours, 48 hours, 7 days and 14 days before sacrifice. Other groups were kept for intravitreous injections of the PEDF and PEDF peptides.
Intravitreous injection of PEDF, PEDF peptides and encapsulated PEDF peptide: One group of animals remained uninjected to monitor ischemic damage. All other groups received intravitreal injections, which were performed under an ophthalmic microscope. […] Intravitreous injection was performed with 30-gauge beveled needle attached to PE10 polyethylene tubing and a 10 μl syringe (Hamilton, Reno, Nev.). The injections were performed through the sclera, approximately 1 mm behind the limbus. The needle remained in the vitreous cavity for 30 seconds after injection then gently withdrawn. Control groups were injected with 1 μl PBS, 1 μl control peptide (1 μg/μl), or blank nanospheres (0.1 mg/μl). […] Vetropolycin® ointment was applied to the injected eyes and animals were allowed to recover for 48 hours or 7 days before sacrifice.
Preparation of retinal tissue: at designated time points, mice were sacrificed by carbon dioxide inhalation followed by, in some cases, cervical dislocation. The eyes were enucleated, fixed in 4% paraformaldehyde for 24 hours, washed with PBS and embedded in paraffin. Five (5) μm thick sections that included the optic nerve were collected. Sections were processed for TUNEL, immunocytochemistry, or histochemical staining with hematoxylin and eosin (Surgipath, Ltd, Richmond, Ill.) using standard methods.
Morphologic and Morphometric Analysis: For each eye, three sections, which included the optic disk and were spaced at least 20 μm apart, were used for morphological analysis. The fields analyzed were 4×250 μm zones sampled from all retinal eccentricities. These zones were 500 μm away from the edge of optic disk or the ora serrata. The average measurement of these 4 zones was used for statistical analysis. The mean thickness of inner nuclear layer (INL) and inner plexiform layer (IPL) was measured using Axiovision3.1 software (Carl Zeiss MicroImaging, Inc., Thornwood, N.Y.). Total surviving cells in the retinal ganglion cell layer at the same locations were counted using light microscopy.
Statistical analysis: Twelve fields per retina were analyzed for each treatment, and a total of 72 fields were used. For statistical analysis, one-way analysis of variance (ANOVA) and Fisher tests were performed; p<0.05 was taken as significant. Data are presented as means and standard deviations.

GFAP = GFAP immunocytochemical labeling of Müller glial cells after transient ischemia; assay type: in vivo, C57/B16 mice
Description: Induction of transient retinal ischemia in C57/B16 mice: Animal experiments were conducted in accordance with ARVO guidelines and were approved by the Animal Care and Use Committee of Yale University School of Medicine. Transient retinal ischemia was induced in one eye and the contralateral eye served as control. During the operation and recovery period, animals were placed on water heating pads at 37° C. Eighty-one 10-14 weeks male C57/B16 mice (Charles River Laboratories, Wilmington, Mass., weighing […]) were used in this experiment. To induce retinal ischemia, a previously established technique with some modifications was used (Hughes, 1991, Exp Eye Res. 53(5):573-582; Buchi et al., 1991, Opthalmologica 203 (3): 138-147). Briefly, animals were anesthetized by i.p. injection of a mixture of 100 mg/kg Ketamine+10 mg/kg Xylazine. The corneas were topically anesthetized with 0.5% proparacaine hydrochloride (Bausch & Lomb Pharmaceuticals, Inc., Tampa, Fla.), and the pupils dilated with 2.5% phenylephrine (Bausch & Lomb Pharmaceuticals, Inc., Tampa, Fla.). The anterior chambers were cannulated in fully anesthetized animals with a 30-gauge infusion needle connected by PE10 polyethylene tubing and IV set to a physiological saline reservoir. The intraocular pressure (IOP) of the cannulated eye was raised to 120 mmHg for 60 minutes by elevating the saline reservoir. Retinal ischemia was confirmed by direct microscopic observation of whitening of the fundus. The reperfusion was confirmed visually when needle was withdrawn from the anterior chamber. One group of animals was treated with Vetropolycin® ophthalmic ointment (Pharmaderm, Melville, N. Y.) on the ischemic eyes and allowed to recover for 24 hours, 48 hours, 7 days and 14 days before sacrifice. Other groups were kept for intravitreous injections of the PEDF and PEDF peptides.
Intravitreous injection of PEDF, PEDF peptides and encapsulated PEDF peptide: One group of animals remained uninjected to monitor ischemic damage. All other groups received intravitreal injections, which were performed under an ophthalmic microscope. Experimental groups received 1 μl native PEDF protein (1 μg/μl), PEDF82-121 peptide (1 μg/μl), PEDF76-95 peptide (1 μg/μl), PEDF91-110 peptide (1 μg/μl), PEDF106-125 peptide (1 μg/μl) or PLGA PEDF82-121 nanospheres (0.1 mg/μl, less than 1.6 μg PEDF82-121 peptide when fully released) immediately after the end of the transient ischemia. Intravitreous injection was performed with 30-gauge beveled needle attached to PE10 polyethylene tubing and a 10 μl syringe (Hamilton, Reno, Nev.). The injections were performed through the sclera, approximately 1 mm behind the limbus. The needle remained in the vitreous cavity for 30 seconds after injection then gently withdrawn. […]

VEGFR1 = VEGFR1 (Homo sapiens, UniProt P17948); assay: VEGFR1 binding; settings: compared to PEDF purified from human plasma or recombinant non-modified human PEDF
VEGFR2 = VEGFR2 (Homo sapiens, UniProt P35968); assay: Block of VEGFR2 phosphorylation; settings: compared to recombinant, non-modified human PEDF
VEGF = assay: Block of VEGF mitogenic signaling; settings: compared to recombinant, non-modified human PEDF
[2] = target: VEGF receptor KDR (VEGFR2) (Homo sapiens, UniProt P35968); assay: ELISA binding to VEGF receptor KDR
[3] = 7 days post ischemia, free single bolus or nanospheres
[4] = 48 hours after ischemia reperfusion

Chain of VEGFR1 (P17948 27-1338, species assumed): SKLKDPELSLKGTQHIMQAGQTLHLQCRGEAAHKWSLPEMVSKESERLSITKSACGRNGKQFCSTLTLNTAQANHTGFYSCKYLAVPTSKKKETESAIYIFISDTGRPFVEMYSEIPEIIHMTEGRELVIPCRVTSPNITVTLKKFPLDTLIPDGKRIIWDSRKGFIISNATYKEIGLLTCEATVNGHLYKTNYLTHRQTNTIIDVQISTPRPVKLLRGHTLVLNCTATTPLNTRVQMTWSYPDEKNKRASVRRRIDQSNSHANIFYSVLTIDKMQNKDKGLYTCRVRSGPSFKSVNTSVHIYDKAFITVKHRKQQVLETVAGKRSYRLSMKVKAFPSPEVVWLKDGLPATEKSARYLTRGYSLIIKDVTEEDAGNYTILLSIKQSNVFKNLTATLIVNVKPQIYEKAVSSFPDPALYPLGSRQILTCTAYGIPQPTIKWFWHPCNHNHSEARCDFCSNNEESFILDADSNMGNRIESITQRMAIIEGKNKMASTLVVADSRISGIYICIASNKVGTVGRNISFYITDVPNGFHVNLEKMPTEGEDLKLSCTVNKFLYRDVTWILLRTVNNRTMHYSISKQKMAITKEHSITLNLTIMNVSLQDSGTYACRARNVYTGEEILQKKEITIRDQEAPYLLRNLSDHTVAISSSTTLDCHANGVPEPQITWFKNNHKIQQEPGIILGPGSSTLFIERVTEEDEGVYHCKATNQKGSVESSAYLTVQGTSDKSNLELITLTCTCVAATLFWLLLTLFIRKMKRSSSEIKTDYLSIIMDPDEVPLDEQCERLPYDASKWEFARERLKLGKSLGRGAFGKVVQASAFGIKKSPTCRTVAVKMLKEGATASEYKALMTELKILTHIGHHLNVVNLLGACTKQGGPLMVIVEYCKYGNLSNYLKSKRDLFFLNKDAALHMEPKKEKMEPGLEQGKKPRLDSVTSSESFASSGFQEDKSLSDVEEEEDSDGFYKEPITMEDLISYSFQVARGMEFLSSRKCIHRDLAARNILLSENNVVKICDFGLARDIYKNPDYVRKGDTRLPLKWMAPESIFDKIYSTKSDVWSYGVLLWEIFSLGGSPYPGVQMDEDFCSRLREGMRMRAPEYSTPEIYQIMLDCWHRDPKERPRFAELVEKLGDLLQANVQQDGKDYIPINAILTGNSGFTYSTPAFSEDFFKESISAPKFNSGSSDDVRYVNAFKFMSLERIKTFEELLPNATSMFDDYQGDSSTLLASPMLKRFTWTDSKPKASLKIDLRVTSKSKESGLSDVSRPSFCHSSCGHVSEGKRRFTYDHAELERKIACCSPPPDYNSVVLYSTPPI
Chain of VEGF receptor KDR (VEGFR2) (P35968 20-1356, species assumed): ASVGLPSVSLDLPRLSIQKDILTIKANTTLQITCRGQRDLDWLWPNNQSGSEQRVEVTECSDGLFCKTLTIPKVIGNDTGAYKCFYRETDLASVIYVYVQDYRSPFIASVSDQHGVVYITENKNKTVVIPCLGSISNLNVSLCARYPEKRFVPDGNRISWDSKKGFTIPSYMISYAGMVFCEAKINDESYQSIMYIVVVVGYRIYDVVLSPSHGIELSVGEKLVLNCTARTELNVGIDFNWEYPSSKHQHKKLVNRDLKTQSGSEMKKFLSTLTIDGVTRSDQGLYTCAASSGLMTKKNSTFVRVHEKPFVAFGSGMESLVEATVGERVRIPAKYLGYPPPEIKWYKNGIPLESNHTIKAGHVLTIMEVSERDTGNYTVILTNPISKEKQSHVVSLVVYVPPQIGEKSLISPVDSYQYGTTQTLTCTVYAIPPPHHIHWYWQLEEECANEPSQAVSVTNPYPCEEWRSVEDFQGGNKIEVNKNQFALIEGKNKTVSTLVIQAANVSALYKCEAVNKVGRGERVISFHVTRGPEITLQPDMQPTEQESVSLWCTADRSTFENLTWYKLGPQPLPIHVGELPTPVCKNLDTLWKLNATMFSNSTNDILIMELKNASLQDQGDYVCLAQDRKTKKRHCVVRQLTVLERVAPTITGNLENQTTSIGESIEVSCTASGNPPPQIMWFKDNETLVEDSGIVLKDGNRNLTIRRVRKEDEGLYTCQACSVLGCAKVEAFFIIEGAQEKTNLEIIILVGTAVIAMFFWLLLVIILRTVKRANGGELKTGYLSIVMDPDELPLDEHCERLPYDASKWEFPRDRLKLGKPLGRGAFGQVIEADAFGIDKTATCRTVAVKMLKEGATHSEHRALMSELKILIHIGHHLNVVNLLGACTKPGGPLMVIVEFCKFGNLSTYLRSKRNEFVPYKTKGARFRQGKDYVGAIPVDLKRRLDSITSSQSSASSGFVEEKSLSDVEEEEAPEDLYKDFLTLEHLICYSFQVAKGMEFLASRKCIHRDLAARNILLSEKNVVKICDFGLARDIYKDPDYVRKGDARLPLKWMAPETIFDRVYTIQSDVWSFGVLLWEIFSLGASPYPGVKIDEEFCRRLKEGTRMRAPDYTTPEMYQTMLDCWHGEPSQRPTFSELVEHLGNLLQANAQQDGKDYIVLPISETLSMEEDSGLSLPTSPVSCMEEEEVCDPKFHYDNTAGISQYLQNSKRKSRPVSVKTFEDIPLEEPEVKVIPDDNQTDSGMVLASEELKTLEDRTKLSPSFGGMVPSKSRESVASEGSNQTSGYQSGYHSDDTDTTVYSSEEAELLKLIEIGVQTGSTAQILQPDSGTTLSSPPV
Chain of VEGFR2 (P35968 20-1356, species assumed): as above

PEDF91-110: residues 91 to 110 of human PEDF, ALSLGAEQRTESIIHRALYY (SEQ ID NO: 7) ((1)..(20) Residues 91-110 of human PEDF; listed as Homo sapiens)
protection of the retinal ganglion cell layer (in words) [1, 3]: significantly protecting
RGCs protected from dying after ischemic injury ([1]; after ischemic injury): about 85%

PEDF76-95: residues 76 to 95 of human PEDF, TNVLLSPLSVATALSALSLG (SEQ ID NO: 5) ((1)..(20) Residues 76-95 of human PEDF; listed as Homo sapiens)
protection of the IPL (in words) ([1]; seven days after ischemic injury): protected
protection of the INL (in words) ([1]; seven days after ischemic injury, versus control peptide PEDF136-155): protected the INL significantly

PEDF106-125: residues 106 to 125 of human PEDF, RALYYDLISSPDIHGTYKEL (SEQ ID NO: 9) ((1)..(20) Residues 106-125 of human PEDF; listed as Homo sapiens)
protection of the retinal ganglion cell layer (in words) [1, 3]: significantly protecting

B1: PEDF protein: full length pigment epithelium-derived factor, a 50 kD protein of the serpin family (protein, listed as Homo sapiens)
chain: MQALVLLLCIGALLGHSSCQNPASPPEEGSPDPDSTGALVEEEDPFFKVPVNKLAAAVSNFGYDLYRVRSSMSPTTNVLLSPLSVATALSALSLGADERTESIIHRALYYDLISSPDIHGTYKELLDTVTAPQKNLKSASRIVFEKKLRIKSSFVAPLEKSYGTRPRVLTGNPRLDLQEINNWVQAQMKGKLARSTKEIPDEISILLLGVAHFKGQWVTKFDSRKTSLEDFYLDEERTVRVPMMSDPKAVLRYGLDSDLSCKIAQLPLTGSMSIIFFLPLKVTQNLTLIEESLTSEFIHDIDRELKTVQAVLTVPKLKLSYEGEVTKSLQEMKLQSLFDSPDFSKITGKPIKLTQVEHRAGFEWNEDGAGTTPSPGLQPAHLTFPLDYHLNQPFIFVLRDTDTGALLFIGKILDPRGP
surviving cells in the RGC layer compared with non-ischemia control [1, 4]: 85.4%
thickness of the INL compared with non-ischemia control [1, 4]: 100%
thickness of the IPL compared with non-ischemia control [1, 4]: 86.6%
protection of the retinal ganglion cell layer (in words) ([1]; 48 hours post ischemia, versus PBS or PEDF136-155): significantly reduced cell death
surviving cells in the RGC layer compared with non-ischemia control ([1]; 7 days after injury): 87.4%
thickness of the INL compared with non-ischemia control ([1]; 7 days after injury): 82.5%
thickness of the IPL compared with non-ischemia control ([1]; 7 days after injury): 78.2%
protection of the retinal ganglion cell layer (in words) [1, 3]: significantly reduced cell death
IPL thickness after ischemic injury (in words) ([1]; compared to PBS injected controls, time not stated): prevented the thinning of the IPL
GFAP labeling compared to PBS injections (GFAP; 48 hours after transient ischemia): less GFAP labeling
GFAP staining (GFAP; 7 days after injury): very similar staining

B2: coPEDF: bacterially expressed codon-optimized fusion protein: thioredoxin, His6 tag, thrombin site and S-Tag fused N-terminally to human PEDF (protein)
chain: QNPASPPEEGSPDPDSTGALVEEEDPFFKVPVNKLAAAVSNFGYDLYRVRSSMSPTTNVLLSPLSVATALSALSLGADERTESIIHRALYYDLISSPDIHGTYKELLDTVTAPQKNLKSASRIVFEKKLRIKSSFVAPLEKSYGTRPRVLTGNPRLDLQEINNWVQAQMKGKLARSTKEIPDEISILLLGVAHFKGQWVTKFDSRKTSLEDFYLDEERTVRVPMMSDPKAVLRYGLDSDLSCKIAQLPLTGSMSIIFFLPLKVTQNLTLIEESLTSEFIHDIDRELKTVQAVLTVPKLKLSYEGEVTKSLQEMKLQSLFDSPDFSKITGKPIKLTQVEHRAGFEWNEDGAGTTPSPGLQPAHLTFPLDYHLNQPFIFVLRDTDTGALLFIGKILDPRGP
modifications: left off: large carriers; small tags and cut ends
notes: bacterially expressed codon-optimized fusion protein: thioredoxin, His6 tag, thrombin site and S-Tag fused N-terminally to human PEDF
VEGFR1 binding (VEGFR1): increased VEGFR1 binding
block of VEGFR2 phosphorylation (VEGFR2): greater effect
block of VEGF mitogenic signaling (VEGF): greater effect
binding to VEGF receptor KDR (VEGFR2) [2]: improves binding
